B1: GTP-binding protein RHO1 (Saccharomyces cerevisiae), P06780 (parent)
chain: MSQQVGNSIRRKLVIVGDGACGKTCLLIVFSKGQFPEVYVPTVFENYVADVEVDGRRVELALWDTAGQEDYDRLRPLSYPDSNVVLICFSIDLPDSLENVQEKWIAEVLHFCQGVPIILVGCKVDLRNDPQTIEQLRQEGQQPVTSQEGQSVADQIGATGYYECSAKTGYGVREVFEAATRASLMGKSKTNGKAKKNTTEKKKKKCVLL

Variants of: B1
Conditions: with sec3_yeast SEC3, P33332
Chain of sec3_yeast SEC3, P33332 (P33332 whole entry): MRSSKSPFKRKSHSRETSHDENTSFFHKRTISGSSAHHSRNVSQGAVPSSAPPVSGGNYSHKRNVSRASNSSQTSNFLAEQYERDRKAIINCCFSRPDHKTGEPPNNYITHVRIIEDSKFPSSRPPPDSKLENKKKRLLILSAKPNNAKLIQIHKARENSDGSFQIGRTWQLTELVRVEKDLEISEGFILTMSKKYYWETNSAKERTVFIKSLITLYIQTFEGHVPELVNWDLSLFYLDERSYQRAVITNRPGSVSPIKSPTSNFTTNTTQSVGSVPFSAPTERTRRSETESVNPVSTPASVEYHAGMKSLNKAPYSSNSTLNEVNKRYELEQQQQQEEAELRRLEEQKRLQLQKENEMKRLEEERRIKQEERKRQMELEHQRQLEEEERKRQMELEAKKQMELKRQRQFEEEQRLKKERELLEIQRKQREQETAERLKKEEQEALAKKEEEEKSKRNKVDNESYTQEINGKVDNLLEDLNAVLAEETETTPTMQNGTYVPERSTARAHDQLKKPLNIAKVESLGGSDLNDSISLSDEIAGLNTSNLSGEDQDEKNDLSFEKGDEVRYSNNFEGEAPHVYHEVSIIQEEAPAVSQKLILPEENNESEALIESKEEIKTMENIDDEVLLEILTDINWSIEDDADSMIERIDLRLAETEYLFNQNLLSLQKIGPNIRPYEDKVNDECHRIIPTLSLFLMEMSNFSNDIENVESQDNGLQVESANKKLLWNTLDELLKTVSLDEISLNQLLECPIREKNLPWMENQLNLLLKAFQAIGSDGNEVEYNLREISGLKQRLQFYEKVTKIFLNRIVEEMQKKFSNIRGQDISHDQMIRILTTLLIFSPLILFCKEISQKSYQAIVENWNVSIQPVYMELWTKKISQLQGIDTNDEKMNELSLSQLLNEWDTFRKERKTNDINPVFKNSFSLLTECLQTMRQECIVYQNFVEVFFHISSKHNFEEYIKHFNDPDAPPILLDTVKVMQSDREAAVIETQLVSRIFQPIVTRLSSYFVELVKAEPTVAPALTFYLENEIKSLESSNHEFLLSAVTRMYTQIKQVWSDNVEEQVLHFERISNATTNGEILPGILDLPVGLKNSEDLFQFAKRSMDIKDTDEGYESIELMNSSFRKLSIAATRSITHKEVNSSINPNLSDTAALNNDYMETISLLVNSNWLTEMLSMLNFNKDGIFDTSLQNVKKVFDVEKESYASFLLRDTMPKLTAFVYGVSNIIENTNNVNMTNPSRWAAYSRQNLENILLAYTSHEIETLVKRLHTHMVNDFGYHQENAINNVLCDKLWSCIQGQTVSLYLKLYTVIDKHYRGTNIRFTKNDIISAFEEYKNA

| Variant | effect of a mutation on the interaction |
| --- | --- |
| MSQQVGNSIRRKLVIVGDGACGKTCLLIVFSKGQFPEVYVPTVFENYVADVEVDGRRVELALWDTAGQEDADRLRPLSYPDSNVVLICFSIDLPDSLENVQEKWIAEVLHFCQGVPIILVGCKVDLRNDPQTIEQLRQEGQQPVTSQEGQSVADQIGATGYYECSAKTGYGVREVFEAATRASLMGKSKTNGKAKKNTTEKKKKKCVLL [Y71A] | disrupting interaction |
| MSQQVGNSIRRKLVIVGDGACGKTCLLIVFSKGQFPEVYVPTAFENYVADVEVDGRRVELALWDTAGQEDYDRLRPLSYPDSNVVLICFSIDLPDSLENVQEKWIAEVLHFCQGVPIILVGCKVDLRNDPQTIEQLRQEGQQPVTSQEGQSVADQIGATGYYECSAKTGYGVREVFEAATRASLMGKSKTNGKAKKNTTEKKKKKCVLL [V43A] | disrupting interaction |
| MSQQVGNSIRRKLVIVGDGACGKTCLLIVFSKGQFPEVYVPTVAENYVADVEVDGRRVELALWDTAGQEDYDRLRPLSYPDSNVVLICFSIDLPDSLENVQEKWIAEVLHFCQGVPIILVGCKVDLRNDPQTIEQLRQEGQQPVTSQEGQSVADQIGATGYYECSAKTGYGVREVFEAATRASLMGKSKTNGKAKKNTTEKKKKKCVLL [F44A] | disrupting interaction |
| MSQQVGNSIRRKLVIVGDGACGKTCLLIVFSKGQFPEVYVPTVFENYVADVEVDGRRVELALWDTAGAEDYDRLRPLSYPDSNVVLICFSIDLPDSLENVQEKWIAEVLHFCQGVPIILVGCKVDLRNDPQTIEQLRQEGQQPVTSQEGQSVADQIGATGYYECSAKTGYGVREVFEAATRASLMGKSKTNGKAKKNTTEKKKKKCVLL [Q68A] | disrupting interaction |
| MSQQVGNSIRRKLVIVGDGACGKTCLLIVFSKGQFPEVYVPTVFENYVADVEVDGRRVELALWDTAGQEDYDALRPLSYPDSNVVLICFSIDLPDSLENVQEKWIAEVLHFCQGVPIILVGCKVDLRNDPQTIEQLRQEGQQPVTSQEGQSVADQIGATGYYECSAKTGYGVREVFEAATRASLMGKSKTNGKAKKNTTEKKKKKCVLL [R73A] | disrupting interaction |

— IntAct's records for PubMed 20062059
